Each block holds one substance with its values, some of them ahead of it.
Tests used:
[1] = target: APEG-1 (Homo sapiens) (UniProt Q15772); assay: analytical ultracentrifugation (sedimentation equilibrium)
[2] = target: Aortic Preferentially Expressed Protein-1 (APEG-1), full-length construct (2-113) (human); assay: AUC; sedimentation equilibrium, dimer to monomers; 15 mM Tris-HCl pH 7.4, 0.1 M NaCl, 0.1 mM EDTA, 0.2% NaN3, 10°C; Kd from concentration-dependent Mw
[3] = target: ΔAPEG-1, truncated Aortic Preferentially Expressed Protein-1 (15-113) (human); assay: AUC; sedimentation equilibrium, dimer to monomers; 0 mM NaCl (salt series)
[4] = target: ΔAPEG-1, truncated Aortic Preferentially Expressed Protein-1 (15-113) (human); assay: AUC; sedimentation equilibrium, dimer to monomers; 15 mM Tris-HCl pH 7.4, 0.1 M NaCl, 0.1 mM EDTA, 0.2% NaN3, 10°C; Kd from concentration-dependent Mw

Chain of Aortic Preferentially Expressed Protein-1 (APEG-1), full-length construct (2-113) (natural protein) (Q15772 2-113): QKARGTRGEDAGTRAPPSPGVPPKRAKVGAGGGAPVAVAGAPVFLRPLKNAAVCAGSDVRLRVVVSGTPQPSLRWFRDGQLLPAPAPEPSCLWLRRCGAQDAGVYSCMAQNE

Kd [1]: 2 µM
Substance: APEG-1, Q15772

Kd [2]: 20 µM
stoichiometry N [2]: 2
Substance: Aortic Preferentially Expressed Protein-1 (APEG-1), full-length construct (2-113) (natural protein)

Kd [3]: 2 to 200 µM
Kd [4]: 20 µM
stoichiometry N [4]: 2
Substance: ΔAPEG-1, truncated Aortic Preferentially Expressed Protein-1 (15-113) (domain or fragment)
